Test results published in IntAct's records for PubMed 23376921.

B1: Transmembrane protein 59 (Homo sapiens), Q9BXS4 (parent)
chain: MAAPKGSLWVRTQLGLPPLLLLTMALAGGSGTASAEAFDSVLGDTASCHRACQLTYPLHTYPKEEELYACQRGCRLFSICQFVDDGIDLNRTKLECESACTEAYSQSDEQYACHLGCQNQLPFAELRQEQLMSLMPKMHLLFPLTLVRSFWSDMMDSAQSFITSSWTFYLQADDGKIVIFQSKPEIQYAPHLEQEPTNLRESSLSKMSYLQMRNSQAHRNFLEDGESDGFLRCLSLNSGWILTTTLVLSVMVLLWICCATVATAVEQYVPSEKLSIYGDLEFMNEQKLNRYPASSLVVVRSKTEDHEEAGPLPTKVNLAHSEI
partner: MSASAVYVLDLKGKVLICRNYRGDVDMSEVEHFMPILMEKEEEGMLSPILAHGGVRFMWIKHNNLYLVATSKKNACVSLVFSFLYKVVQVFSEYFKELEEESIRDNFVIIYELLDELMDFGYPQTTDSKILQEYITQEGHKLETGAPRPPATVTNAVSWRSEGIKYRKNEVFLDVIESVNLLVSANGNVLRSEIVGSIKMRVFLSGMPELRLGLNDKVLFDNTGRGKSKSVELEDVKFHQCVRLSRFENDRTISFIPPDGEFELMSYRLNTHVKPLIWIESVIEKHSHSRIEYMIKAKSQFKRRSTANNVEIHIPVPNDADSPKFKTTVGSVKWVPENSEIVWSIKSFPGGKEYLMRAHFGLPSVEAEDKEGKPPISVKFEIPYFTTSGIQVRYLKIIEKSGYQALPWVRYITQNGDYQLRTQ
B2: Transmembrane protein 59 (Homo sapiens), Q9BXS4 (parent)
chain: B1 chain

Variants of: B1
Settings: with ap1m1_human AP1M1, Q9BXS5

effect of a mutation on the interaction	Variant
disrupting interaction	Y268A;E272A;Y277A;L280A

Variants of: B2
Settings: with ATG16L1, Q676U5
Sequence of ATG16L1, Q676U5 (Q676U5 whole entry): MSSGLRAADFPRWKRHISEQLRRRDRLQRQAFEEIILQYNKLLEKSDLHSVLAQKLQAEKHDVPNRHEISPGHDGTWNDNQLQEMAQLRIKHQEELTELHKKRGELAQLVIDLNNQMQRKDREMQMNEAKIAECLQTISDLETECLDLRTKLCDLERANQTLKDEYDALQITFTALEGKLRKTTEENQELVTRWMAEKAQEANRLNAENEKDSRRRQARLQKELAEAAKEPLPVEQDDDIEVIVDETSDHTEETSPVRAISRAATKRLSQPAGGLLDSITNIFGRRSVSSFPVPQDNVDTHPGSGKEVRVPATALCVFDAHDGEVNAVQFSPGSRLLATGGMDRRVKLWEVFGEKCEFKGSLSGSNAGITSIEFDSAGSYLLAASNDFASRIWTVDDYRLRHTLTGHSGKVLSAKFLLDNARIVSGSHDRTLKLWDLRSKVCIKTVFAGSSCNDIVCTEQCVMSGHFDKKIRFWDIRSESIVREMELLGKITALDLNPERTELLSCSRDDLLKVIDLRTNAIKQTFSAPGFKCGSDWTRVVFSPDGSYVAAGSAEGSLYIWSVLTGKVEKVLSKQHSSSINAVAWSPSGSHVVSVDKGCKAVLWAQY

effect of a mutation on the interaction	Variant
disrupting interaction	Y268A;E272A;Y277A;L280A

Variants of: B2
Settings: with ATG16L1, Q676U5
Remark: another data set of the same source

effect of a mutation on the interaction	Variant
disrupting interaction	Y268A;E272A;Y277A;L280A

Variants of: B2
Settings: with ATG16L1, Q676U5
Remark: another data set of the same source

effect of a mutation on the interaction	Variant
disrupting interaction	Y268A;E272A;Y277A;L280A

Variants of: B2
Settings: with ATG16L1, Q676U5
Remark: another data set of the same source

effect of a mutation on the interaction	Variant
disrupting interaction	Y268A;E272A;Y277A;L280A

Variants of: B2
Settings: with ATG16L1, Q676U5
Remark: another data set of the same source

effect of a mutation on the interaction	Variant
disrupting interaction	Y268A;E272A;Y277A;L280A

Variants of: B2
Settings: with ap2m1_human AP2M1, Q96CW1
Sequence of ap2m1_human AP2M1, Q96CW1 (Q96CW1 whole entry): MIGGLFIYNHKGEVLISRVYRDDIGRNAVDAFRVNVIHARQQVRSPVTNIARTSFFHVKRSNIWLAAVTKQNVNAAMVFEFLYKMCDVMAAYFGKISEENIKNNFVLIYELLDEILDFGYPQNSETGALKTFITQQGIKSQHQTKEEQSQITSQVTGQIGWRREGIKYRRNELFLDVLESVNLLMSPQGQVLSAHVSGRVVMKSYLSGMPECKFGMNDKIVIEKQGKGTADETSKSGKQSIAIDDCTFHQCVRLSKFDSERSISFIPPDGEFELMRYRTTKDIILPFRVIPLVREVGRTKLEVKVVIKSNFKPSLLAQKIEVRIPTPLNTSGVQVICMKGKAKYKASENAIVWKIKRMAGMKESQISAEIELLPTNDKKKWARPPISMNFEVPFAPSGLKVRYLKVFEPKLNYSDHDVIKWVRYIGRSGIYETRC

effect of a mutation on the interaction	Variant
disrupting interaction	Y268A;E272A;Y277A;L280A

Variants of: B2
Settings: with mlp3a_human MAP1LC3A

effect of a mutation on the interaction	Variant
disrupting interaction	Y268A;E272A;Y277A;L280A

Variants of: B2
Settings: with ATG16L1, Q676U5
Remark: another data set of the same source

effect of a mutation on the interaction	Variant
disrupting interaction	Y277A;L280A
